Earlier results on one substance are cited in PMC2814318.

Data set [1] deals with CaV β2a subunit (Rattus norvegicus) (UniProt Q8VGC3).
Data set [2] concerns the target CaV β1b subunit (Rattus norvegicus) (UniProt P54283).

Chain of CaMKIIδ (P15791 2-533, stated change not applied): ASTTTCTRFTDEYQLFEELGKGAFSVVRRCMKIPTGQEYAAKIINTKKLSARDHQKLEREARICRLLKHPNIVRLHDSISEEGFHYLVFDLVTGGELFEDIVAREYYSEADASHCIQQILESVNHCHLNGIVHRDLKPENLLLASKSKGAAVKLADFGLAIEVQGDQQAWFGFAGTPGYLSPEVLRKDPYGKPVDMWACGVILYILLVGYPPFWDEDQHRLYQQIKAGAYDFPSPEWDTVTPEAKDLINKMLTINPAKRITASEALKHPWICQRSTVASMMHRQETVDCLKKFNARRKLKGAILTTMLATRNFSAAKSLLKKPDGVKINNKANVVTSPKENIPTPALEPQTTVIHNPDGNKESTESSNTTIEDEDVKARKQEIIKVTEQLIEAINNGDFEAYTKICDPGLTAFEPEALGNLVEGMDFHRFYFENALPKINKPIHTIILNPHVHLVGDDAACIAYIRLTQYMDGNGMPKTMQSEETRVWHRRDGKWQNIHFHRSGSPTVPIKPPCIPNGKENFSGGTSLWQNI
Chain of CaV β1b subunit (Rattus norvegicus) (P54283 whole entry): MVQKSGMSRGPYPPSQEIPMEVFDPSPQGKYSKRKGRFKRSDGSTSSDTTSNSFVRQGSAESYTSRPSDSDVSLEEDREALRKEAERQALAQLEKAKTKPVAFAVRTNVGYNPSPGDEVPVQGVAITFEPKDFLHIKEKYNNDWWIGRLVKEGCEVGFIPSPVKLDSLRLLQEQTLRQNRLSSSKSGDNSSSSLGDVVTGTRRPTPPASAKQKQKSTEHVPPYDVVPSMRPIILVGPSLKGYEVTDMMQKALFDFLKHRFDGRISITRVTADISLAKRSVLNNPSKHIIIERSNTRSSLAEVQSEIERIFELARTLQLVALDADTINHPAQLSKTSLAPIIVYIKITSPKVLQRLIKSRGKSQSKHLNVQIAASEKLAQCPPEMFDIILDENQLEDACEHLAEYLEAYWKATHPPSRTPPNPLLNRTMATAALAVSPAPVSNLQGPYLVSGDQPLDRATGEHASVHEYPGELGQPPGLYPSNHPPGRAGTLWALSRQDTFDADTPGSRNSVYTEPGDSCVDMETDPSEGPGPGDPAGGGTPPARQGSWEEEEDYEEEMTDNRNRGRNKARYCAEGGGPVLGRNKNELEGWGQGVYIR

By Kd is commonly meant a measure of binding affinity in units of concentration. As to CaMKIIδ (from UniProt P15791), the Kd in data set [1] and in data set [2] was 100 nM each time.
